Results as given in article PMC2809104, “Crystal Structure and Substrate Specificity of Drosophila 3,4-Dihydroxyphenylalanine Decarboxylase” (PLoS ONE, 2010).
Residue numbers refer to the chain shown, from its start. Values belong to the molecule of their own block, whether it stands above or below them.

Assays:
drDDC [1] = biological target: T1, drDDC (Drosophila melanogaster, UniProt P05031, H227W/DEL476-510, form not given); assay: HPLC-UV of decarboxylated product, Michaelis-Menten fit; type: biochemical; conditions: 38°C, 40 µM PLP, 150 mM potassium phosphate pH 7.0
T1 construct: gene Ddc; homodimer, PLP holoenzyme; residues 1-475
T1 sequence (P05031 1-475 isoform P05031-2 H192W): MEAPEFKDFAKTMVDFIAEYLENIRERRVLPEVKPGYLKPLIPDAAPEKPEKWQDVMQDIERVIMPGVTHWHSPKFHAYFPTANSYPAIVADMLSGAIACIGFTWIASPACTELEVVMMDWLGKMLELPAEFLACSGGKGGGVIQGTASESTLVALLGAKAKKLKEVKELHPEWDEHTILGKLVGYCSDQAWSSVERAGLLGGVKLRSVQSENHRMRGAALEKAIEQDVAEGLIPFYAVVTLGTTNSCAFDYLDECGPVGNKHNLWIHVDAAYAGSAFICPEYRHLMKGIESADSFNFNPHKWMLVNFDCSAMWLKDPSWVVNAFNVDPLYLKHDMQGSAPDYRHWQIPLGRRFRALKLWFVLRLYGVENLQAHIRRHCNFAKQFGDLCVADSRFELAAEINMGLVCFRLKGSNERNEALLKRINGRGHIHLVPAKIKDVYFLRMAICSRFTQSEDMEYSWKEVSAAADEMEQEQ
Description: (§1) HPLC-UV of decarboxylated product, Michaelis-Menten fit on drDDC

drDDC [2] = biological target: T2, drDDC (Drosophila melanogaster, UniProt P05031, T117A/DEL476-510, form not given); assay: as above; type: biochemical; conditions: 38°C, 40 µM PLP, 150 mM potassium phosphate pH 7.0
T2 construct: gene Ddc; homodimer, PLP holoenzyme; residues 1-475
T2 sequence (P05031 1-475 isoform P05031-2 T82A): T1 sequence (P05031 1-475 isoform P05031-2 H192W) with T82A, W192H
Description: as §1

drDDC [3] = biological target: T3, drDDC (Drosophila melanogaster, UniProt P05031, T117S/DEL476-510, form not given); assay: as above; type: biochemical; conditions: 38°C, 40 µM PLP, 150 mM potassium phosphate pH 7.0
T3 construct: gene Ddc; homodimer, PLP holoenzyme; residues 1-475
T3 sequence (P05031 1-475 isoform P05031-2 T82S): T1 sequence (P05031 1-475 isoform P05031-2 H192W) with T82S, W192H
Description: as §1

drDDC [4] = biological target: T4, drDDC (Drosophila melanogaster, UniProt P05031); assay: X-ray crystal structure, […] Å; type: binding; conditions: covalent internal aldimine (Schiff base) with K302
T4 construct: gene Ddc; homodimer, PLP holoenzyme; residues 1-475
T4 sequence (P05031 36-510): T1 sequence (P05031 1-475 isoform P05031-2 H192W) with W192H

[5] = substrate: NC(Cc1cccc(O)c1)C(=O)O; assay: HPLC-UV of decarboxylated product, Michaelis-Menten fit; type: biochemical, Drosophila melanogaster; conditions: 38°C, 40 µM PLP, 150 mM potassium phosphate pH 7.0, racemic DL substrate
Description: as §1

[6] = substrate: NC(Cc1ccccc1O)C(=O)O; assay: as above; type: biochemical, Drosophila melanogaster; conditions: 38°C, 40 µM PLP, 150 mM potassium phosphate pH 7.0, racemic DL substrate
Description: as §1

[7] = substrate: N[C@@H](Cc1c[nH]c2ccc(O)cc12)C(=O)O; assay: as above; type: biochemical, Drosophila melanogaster; conditions: 38°C, 40 µM PLP, 150 mM potassium phosphate pH 7.0
Description: as §1

[8] = substrate: N[C@@H](Cc1ccc(O)c(O)c1)C(=O)O; assay: as above; type: biochemical, Drosophila melanogaster; conditions: 38°C, 40 µM PLP, 150 mM potassium phosphate pH 7.0
Description: as §1

[9] = biological target: the molecule itself; assay: crystal structure; hanging-drop vapor diffusion; 15% PEG 4000, 20% glycerol, 200 mM CaCl2, 100 mM cacodylic acid pH 6.5; molecular replacement with pig DDC (1js3); two molecules in the asymmetric unit

Molecule: Cc1ncc(COP(=O)(O)O)c(C=O)c1O [PLP]
X-ray crystal structure, 1.75 Å (drDDC [4]): The cofactor PLP binds to K302 through a Schiff base linkage

B1: drDDC (Drosophila melanogaster) (protein)
chain: T1 sequence (P05031 1-475 isoform P05031-2 H192W) with W192H
notes: homodimer, PLP holoenzyme; residues 1-475
Km [5]: 2.3 ± 1.2 mM | kcat [5]: 3.56 ± 0.673 s⁻¹ | kcat/Km [5]: 1550 M⁻¹ s⁻¹ | Km [6]: 1.1 ± 0.3 mM | kcat [6]: 1.85 ± 0.133 s⁻¹ | kcat/Km [6]: 1680 M⁻¹ s⁻¹ | Km [7]: 0.4 ± 0.04 mM | kcat [7]: 1.05 ± 0.0233 s⁻¹ | kcat/Km [7]: 2620 M⁻¹ s⁻¹ | Km [8]: 2.2 ± 0.3 mM | kcat [8]: 4.7 ± 0.0267 s⁻¹ | kcat/Km [8]: 2140 M⁻¹ s⁻¹

B2: Drosophila melanogaster 3,4-dihydroxyphenylalanine decarboxylase, wild type (enzyme, UniProt P05031-2 1-475, looked up)
chain: T1 sequence (P05031 1-475 isoform P05031-2 H192W) with W192H
modifications: lysine-pyridoxal-5-phosphate (LLP): PLP bound to K302 through a Schiff base (internal aldimine)
notes: the forward primer begins at ATG GAG GCG CCG GAG TTC (MEAPEF); also called drDDC; drDDC WT; source: Escherichia coli DE3, purified (chitin beads, DEAE-Sepharose, Mono-Q, gel filtration)
stoichiometry N [9]: 2

Continued, values first:

Km (drDDC [1]): 4.4 ± 0.8 mM | Km (drDDC [2]): 5.6 ± 1 mM | Km (drDDC [3]): 4.5 ± 0.9 mM
Molecule: N[C@@H](Cc1ccc(O)c(O)c1)C(=O)O [DOPA]

Km (drDDC [1]): 1.1 ± 0.1 mM | Km (drDDC [2]): 3.5 ± 0.5 mM | Km (drDDC [3]): 0.6 ± 0.1 mM
Molecule: N[C@@H](Cc1c[nH]c2ccc(O)cc12)C(=O)O [5-HTP]

Km (drDDC [2]; racemic DL substrate): 4.9 ± 1.5 mM
Molecule: NC(Cc1ccccc1O)C(=O)O (racemic) [o-tyr, DL-o-tyrosine]

Km (drDDC [1]; racemic DL substrate): 2.6 ± 1.1 mM | Km (drDDC [2]; racemic DL substrate): 13.3 ± 4.5 mM | Km (drDDC [3]; racemic DL substrate): 11.4 ± 2.2 mM
Molecule: NC(Cc1cccc(O)c1)C(=O)O (racemic) [m-tyr, DL-m-tyrosine]
